In publication PMC4174438:

Target: RtcA (RNA 3'-phosphate cyclase) (Pyrococcus horikoshii, UniProt O59198 1-341)
Assay: EMSA

Sequence of RtcA (RNA 3'-phosphate cyclase) (O59198 whole entry): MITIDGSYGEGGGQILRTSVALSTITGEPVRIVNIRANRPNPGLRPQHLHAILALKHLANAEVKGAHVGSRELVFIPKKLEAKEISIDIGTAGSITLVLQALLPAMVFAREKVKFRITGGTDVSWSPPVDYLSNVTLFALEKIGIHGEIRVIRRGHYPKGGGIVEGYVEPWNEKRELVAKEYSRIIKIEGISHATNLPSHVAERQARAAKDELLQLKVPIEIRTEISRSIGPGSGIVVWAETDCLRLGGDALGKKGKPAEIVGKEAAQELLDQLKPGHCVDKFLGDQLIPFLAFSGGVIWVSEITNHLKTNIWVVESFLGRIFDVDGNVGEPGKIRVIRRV

Binder: CGUUUU (ssRNA, 3'-phosphate) [U6 6-mer RNA 3'-p]
- binding result: binds
